According to patent publication US20090269277A1:

Assays:
CEA = CEA (UniProt P06731); assay: SE-HPLC of 125I-TF2 mixed with a 20-fold molar excess of CEA
[1] = molecular target: recombinant human RIIalpha (commercial sample) (human) (UniProt P13861); assay: equilibrium SE-HPLC
Sequence of recombinant human RIIalpha (commercial sample) (human) (P13861 whole entry): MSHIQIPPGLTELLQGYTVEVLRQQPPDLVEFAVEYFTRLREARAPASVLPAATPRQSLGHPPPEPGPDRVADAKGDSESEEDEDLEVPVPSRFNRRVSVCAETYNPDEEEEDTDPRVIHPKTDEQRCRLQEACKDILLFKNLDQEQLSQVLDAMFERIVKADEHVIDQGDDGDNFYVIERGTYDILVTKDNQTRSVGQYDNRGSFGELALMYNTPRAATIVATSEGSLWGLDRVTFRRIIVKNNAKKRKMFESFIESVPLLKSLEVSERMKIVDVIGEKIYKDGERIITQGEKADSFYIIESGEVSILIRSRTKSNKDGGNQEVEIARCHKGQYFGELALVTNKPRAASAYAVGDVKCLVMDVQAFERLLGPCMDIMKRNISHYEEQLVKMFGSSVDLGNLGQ

Sequence of CEA (P06731 35-685 limits assumed): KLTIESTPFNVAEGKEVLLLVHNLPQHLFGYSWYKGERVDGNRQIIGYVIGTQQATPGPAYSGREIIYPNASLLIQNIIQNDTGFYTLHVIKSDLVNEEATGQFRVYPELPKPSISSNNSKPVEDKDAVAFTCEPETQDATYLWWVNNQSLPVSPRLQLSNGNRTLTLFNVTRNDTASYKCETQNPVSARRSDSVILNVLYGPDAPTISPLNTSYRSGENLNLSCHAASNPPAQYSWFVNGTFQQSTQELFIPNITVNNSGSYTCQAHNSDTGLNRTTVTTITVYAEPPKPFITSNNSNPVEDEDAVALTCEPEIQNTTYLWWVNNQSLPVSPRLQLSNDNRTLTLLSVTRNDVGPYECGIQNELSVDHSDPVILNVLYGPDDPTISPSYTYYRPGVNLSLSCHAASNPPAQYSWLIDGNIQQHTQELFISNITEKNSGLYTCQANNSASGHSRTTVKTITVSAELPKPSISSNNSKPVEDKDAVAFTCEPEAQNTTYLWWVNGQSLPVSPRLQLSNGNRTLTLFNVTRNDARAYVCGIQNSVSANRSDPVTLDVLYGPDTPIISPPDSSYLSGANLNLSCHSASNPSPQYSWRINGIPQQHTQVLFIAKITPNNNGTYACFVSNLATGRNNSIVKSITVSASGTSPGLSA

Molecule: TF2 (bispecific antibody)
- percent of labeled TF2 shifted to a high molecular weight species (CEA): 95%

B1: h679-Fab-AD1 (Fab, part only; not given: h679 Fd and light chain, part only)
heavy, part: PKSCGGGGSGGGGSGGGGSQIEYLAKQIVDNAIQQA
- Kd [1]: 30 nM
